Assay results as given in PMC10662749.
“Also recorded” adds a separate entry of the source. Where two headings read alike, the source gives them in different places.

Substance	other: neutralisation sensitivity (glycan lost)	other: neutralisation sensitivity, other: maximum % neutralisation (glycan lost)	also measured
SARS-CoV-2 spike, BA.1 (Omicron): N717Q	–	–	other: proteolytic processing (glycan lost): decreases
SARS-CoV-2 spike, B.1.617.2 (Delta): N801Q	–	–	other: pseudovirus infectivity (glycan lost): no change
SARS-CoV-2 spike, B.1.617.2 (Delta): N717Q	–	–	other: pseudovirus infectivity (glycan lost): no change
SARS-CoV-2 spike, D614G: 20 μM swainsonine	–	–	other: pseudovirus infectivity (glycan changed form): no change
SARS-CoV-2 spike, D614G: N331Q	no change	no change, 60 ± 4 vs 64 ± 4	–
SARS-CoV-2 spike, BQ.1.1 (Omicron): N801Q	–	–	other: pseudovirus infectivity, fold_change (glycan lost): abolishes
SARS-CoV-2 spike, BA.1 (Omicron): N234Q	–	no change, 87 ± 4 vs 79 ± 7	–
SARS-CoV-2 spike, BA.1 (Omicron): N165Q	no change	no change, 79 ± 7 vs 79 ± 7	–
SARS-CoV-2 spike, D614G: N717Q	no change	no change, 67 ± 9 vs 64 ± 4; also recorded: decreases, 43 ± 6 vs 65 ± 7	other: pseudovirus infectivity, fold_change (glycan lost): decreases
SARS-CoV-2 spike, D614G: N149Q	no change	–	–
SARS-CoV-2 spike, D614G: N282Q	no change	–	other: neutralisation sensitivity, fold_change (glycan lost): decreases
SARS-CoV-2 spike, BA.1 (Omicron): N343Q	no change	no change, 82 ± 6 vs 79 ± 7	–
SARS-CoV-2 spike, BA.1 (Omicron): N616Q	no change	–	–
SARS-CoV-2 spike, BA.4 (Omicron): N717Q	–	–	other: pseudovirus infectivity, fold_change (glycan lost): abolishes
SARS-CoV-2 spike, BA.1 (Omicron): N1098Q	no change	no change, 85 ± 7 vs 79 ± 7	other: pseudovirus particle yield (p24) (glycan lost): decreases
SARS-CoV-2 spike, BA.1 (Omicron): N709Q	no change	–	–
SARS-CoV-2 spike, D614G: N1173Q	no change	no change, 73 ± 14 vs 64 ± 4; also recorded: decreases, 50 ± 5 vs 65 ± 7	–
SARS-CoV-2 spike, BA.1 (Omicron): 50 μM kifunensine	–	–	other: proteolytic processing (glycan changed form): no change; other: pseudovirus infectivity, fold_change (glycan changed form): abolishes
SARS-CoV-2 spike, D614G: N165Q	no change	–	–
SARS-CoV-2 spike, D614G: N1194Q	no change	no change, 66 ± 3 vs 64 ± 4; also recorded: no change, 60 ± 3 vs 65 ± 7	–

Substance	other: neutralisation sensitivity (glycan lost)	other: neutralisation sensitivity, other: maximum % neutralisation (glycan lost)	also measured
SARS-CoV-2 spike, BA.1 (Omicron): N1134Q	no change	no change, 73 ± 15 vs 79 ± 7	–
SARS-CoV-2 spike, D614G: N1098Q	no change	no change, 69 ± 11 vs 64 ± 4	–
SARS-CoV-2 spike, D614G: N74Q	no change	no change, 62 ± 3 vs 64 ± 4	–
SARS-CoV-2 spike, D614G: N1134Q	no change	no change, 65 ± 5 vs 64 ± 4; also recorded: no change, 65 ± 4 vs 65 ± 7	–
SARS-CoV-2 spike, D614G: N343Q	no change	–	other: pseudovirus infectivity, fold_change (glycan lost): decreases
SARS-CoV-2 spike, D614G: N657Q	no change	no change, 58 ± 4 vs 64 ± 4	–
SARS-CoV-2 spike, D614G: N709Q	no change	no change, 69 ± 6 vs 64 ± 4	–
SARS-CoV-2 spike, D614G: N122Q	no change	no change, 62 ± 9 vs 64 ± 4; also recorded: decreases, 29 ± 4 vs 65 ± 7	other: pseudovirus infectivity, fold_change (glycan lost): decreases
SARS-CoV-2 spike, BQ.1.1 (Omicron): N717Q	–	–	other: pseudovirus infectivity, fold_change (glycan lost): abolishes
SARS-CoV-2 spike, BA.1 (Omicron): N17Q	no change	–	–
SARS-CoV-2 spike, BA.1 (Omicron): N1173Q	no change	no change, 80 ± 9 vs 79 ± 7	–
SARS-CoV-2 spike, BA.1 (Omicron): N149Q	no change	–	–
SARS-CoV-2 spike, BA.1 (Omicron): N122Q	no change	decreases, 36 ± 19 vs 79 ± 7	–
SARS-CoV-2 spike, BA.1 (Omicron): N331Q	no change	–	–
SARS-CoV-2 spike, BA.1 (Omicron): N657Q	no change	–	–
SARS-CoV-2 spike, BA.1 (Omicron): N1158Q	no change	no change, 86 ± 34 vs 79 ± 7	–
SARS-CoV-2 spike, BA.1 (Omicron): N603Q	no change	–	–
SARS-CoV-2 spike, D614G: N603Q	no change	no change, 62 ± 3 vs 64 ± 4	–
SARS-CoV-2 spike, D614G: N234Q	–	–	other: neutralisation sensitivity, fold_change (glycan lost): decreases
SARS-CoV-2 spike, B.1.617.2 (Delta): GnTI- cells	–	–	other: proteolytic processing (glycan changed form): no change; other: pseudovirus infectivity (glycan changed form): decreases

Substance	other: neutralisation sensitivity (glycan lost)	other: neutralisation sensitivity, other: maximum % neutralisation (glycan lost)	also measured
SARS-CoV-2 spike, D614G: 50 μM kifunensine	–	–	other: neutralisation sensitivity, other: maximum % neutralisation (glycan changed form): no change, 55 ± 9 vs 64 ± 4; other: proteolytic processing (glycan changed form): no change; other: pseudovirus infectivity (glycan changed form): decreases
SARS-CoV-2 spike, B.1.617.2 (Delta): 20 μM swainsonine	–	–	other: pseudovirus infectivity (glycan changed form): no change
SARS-CoV-2 spike, BA.1 (Omicron): N282Q	no change	–	–
SARS-CoV-2 spike, D614G: N616Q	no change	no change, 64 ± 7 vs 64 ± 4	–
SARS-CoV-2 spike, D614G: N17Q	no change	–	–
SARS-CoV-2 spike, BA.1 (Omicron): N1074Q	no change	no change, 86 ± 13 vs 79 ± 7	other: pseudovirus particle yield (p24) (glycan lost): decreases
SARS-CoV-2 spike, D614G: N1074Q	no change	no change, 61 ± 4 vs 64 ± 4; also recorded: decreases, 45 ± 6 vs 65 ± 7	other: pseudovirus infectivity, fold_change (glycan lost): decreases
SARS-CoV-2 spike, BA.1 (Omicron): N801A	–	–	other: pseudovirus infectivity, fold_change (glycan lost): abolishes
SARS-CoV-2 spike, D614G: N1158Q	no change	no change, 63 ± 3 vs 64 ± 4	–
SARS-CoV-2 spike, BA.1 (Omicron): N74Q	no change	no change, 77 ± 9 vs 79 ± 7	–
SARS-CoV-2 spike, BA.1 (Omicron): N801Q	–	–	other: proteolytic processing (glycan lost): decreases
SARS-CoV-2 spike, BA.1 (Omicron): N61Q	no change	no change, 73 ± 10 vs 79 ± 7	–
SARS-CoV-2 spike, B.1.617.2 (Delta): 50 μM kifunensine	–	–	other: proteolytic processing (glycan changed form): no change; other: pseudovirus infectivity (glycan changed form): decreases
SARS-CoV-2 spike, BA.1 (Omicron): 20 μM swainsonine	–	–	other: neutralisation sensitivity, other: maximum % neutralisation (glycan changed form): no change, 74 ± 7 vs 54 ± 7; other: proteolytic processing (glycan changed form): no change; other: pseudovirus infectivity, fold_change (glycan changed form): no change
SARS-CoV-2 spike, D614G: N801Q	no change	no change, 63 ± 4 vs 64 ± 4; also recorded: no change, 74 ± 7 vs 65 ± 7	other: pseudovirus infectivity, fold_change (glycan lost): decreases
SARS-CoV-2 spike, D614G: N61Q	no change	no change, 61 ± 4 vs 64 ± 4	other: proteolytic processing (glycan lost): decreases; other: pseudovirus infectivity, fold_change (glycan lost): decreases
SARS-CoV-2 spike, BA.1 (Omicron): N1194Q	no change	no change, 75 ± 11 vs 79 ± 7	–
SARS-CoV-2 spike, BA.4 (Omicron): N801Q	–	–	other: pseudovirus infectivity, fold_change (glycan lost): abolishes
SARS-CoV-2 spike, BA.1 (Omicron): GnTI- cells	–	–	other: proteolytic processing (glycan changed form): no change; other: pseudovirus infectivity, fold_change (glycan changed form): abolishes
SARS-CoV-2 spike, BA.1 (Omicron): N717A	–	–	other: pseudovirus infectivity, fold_change (glycan lost): decreases
